From patent US20180265864, “Genome Engineering Methods Using a Cytosine-Specific CAS9” (Florida State University Research Foundation, Inc., published 2018) come the findings set out here.

Some results are limits rather than exact numbers.

Series [1] deals with T1, AceCas9 (in E. coli) (Acidothermus cellulolyticus 11B) (UniProt A0LWB3).
T1 sequence: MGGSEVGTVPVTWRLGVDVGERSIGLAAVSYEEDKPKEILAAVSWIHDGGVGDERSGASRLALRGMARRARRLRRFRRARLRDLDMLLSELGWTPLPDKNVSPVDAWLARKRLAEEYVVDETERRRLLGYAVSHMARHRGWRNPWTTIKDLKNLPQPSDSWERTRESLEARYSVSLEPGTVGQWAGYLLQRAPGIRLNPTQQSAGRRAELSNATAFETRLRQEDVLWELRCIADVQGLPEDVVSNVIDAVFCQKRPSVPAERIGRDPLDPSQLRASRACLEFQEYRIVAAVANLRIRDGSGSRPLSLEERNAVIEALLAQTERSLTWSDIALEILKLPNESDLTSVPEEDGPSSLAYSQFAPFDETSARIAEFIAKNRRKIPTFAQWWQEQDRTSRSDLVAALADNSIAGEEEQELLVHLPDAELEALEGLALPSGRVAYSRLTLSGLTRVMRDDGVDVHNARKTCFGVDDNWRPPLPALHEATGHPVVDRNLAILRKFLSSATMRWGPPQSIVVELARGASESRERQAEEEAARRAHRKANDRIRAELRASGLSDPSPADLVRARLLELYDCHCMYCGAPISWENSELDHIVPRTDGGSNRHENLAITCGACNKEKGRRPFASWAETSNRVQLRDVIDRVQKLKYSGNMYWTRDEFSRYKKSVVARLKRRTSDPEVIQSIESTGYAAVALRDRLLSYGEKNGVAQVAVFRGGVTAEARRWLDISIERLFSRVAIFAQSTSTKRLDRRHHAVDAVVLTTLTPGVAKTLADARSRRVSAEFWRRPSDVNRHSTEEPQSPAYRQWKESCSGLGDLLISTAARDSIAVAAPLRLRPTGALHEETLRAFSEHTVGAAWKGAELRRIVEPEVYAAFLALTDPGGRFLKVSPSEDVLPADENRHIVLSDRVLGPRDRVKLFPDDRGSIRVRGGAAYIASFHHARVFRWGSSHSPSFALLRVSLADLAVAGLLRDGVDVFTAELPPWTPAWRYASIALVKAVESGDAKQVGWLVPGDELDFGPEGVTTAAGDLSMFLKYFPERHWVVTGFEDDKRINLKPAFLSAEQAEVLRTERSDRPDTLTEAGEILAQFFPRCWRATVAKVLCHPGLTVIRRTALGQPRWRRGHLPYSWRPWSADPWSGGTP
Description: cell_activity.

For a further series, the target named is T2, AceCas9 (Type II-C Cas9) (Acidothermus cellulolyticus 11B, UniProt A0LWB3 A0LWB3:1-1138).
T2 sequence: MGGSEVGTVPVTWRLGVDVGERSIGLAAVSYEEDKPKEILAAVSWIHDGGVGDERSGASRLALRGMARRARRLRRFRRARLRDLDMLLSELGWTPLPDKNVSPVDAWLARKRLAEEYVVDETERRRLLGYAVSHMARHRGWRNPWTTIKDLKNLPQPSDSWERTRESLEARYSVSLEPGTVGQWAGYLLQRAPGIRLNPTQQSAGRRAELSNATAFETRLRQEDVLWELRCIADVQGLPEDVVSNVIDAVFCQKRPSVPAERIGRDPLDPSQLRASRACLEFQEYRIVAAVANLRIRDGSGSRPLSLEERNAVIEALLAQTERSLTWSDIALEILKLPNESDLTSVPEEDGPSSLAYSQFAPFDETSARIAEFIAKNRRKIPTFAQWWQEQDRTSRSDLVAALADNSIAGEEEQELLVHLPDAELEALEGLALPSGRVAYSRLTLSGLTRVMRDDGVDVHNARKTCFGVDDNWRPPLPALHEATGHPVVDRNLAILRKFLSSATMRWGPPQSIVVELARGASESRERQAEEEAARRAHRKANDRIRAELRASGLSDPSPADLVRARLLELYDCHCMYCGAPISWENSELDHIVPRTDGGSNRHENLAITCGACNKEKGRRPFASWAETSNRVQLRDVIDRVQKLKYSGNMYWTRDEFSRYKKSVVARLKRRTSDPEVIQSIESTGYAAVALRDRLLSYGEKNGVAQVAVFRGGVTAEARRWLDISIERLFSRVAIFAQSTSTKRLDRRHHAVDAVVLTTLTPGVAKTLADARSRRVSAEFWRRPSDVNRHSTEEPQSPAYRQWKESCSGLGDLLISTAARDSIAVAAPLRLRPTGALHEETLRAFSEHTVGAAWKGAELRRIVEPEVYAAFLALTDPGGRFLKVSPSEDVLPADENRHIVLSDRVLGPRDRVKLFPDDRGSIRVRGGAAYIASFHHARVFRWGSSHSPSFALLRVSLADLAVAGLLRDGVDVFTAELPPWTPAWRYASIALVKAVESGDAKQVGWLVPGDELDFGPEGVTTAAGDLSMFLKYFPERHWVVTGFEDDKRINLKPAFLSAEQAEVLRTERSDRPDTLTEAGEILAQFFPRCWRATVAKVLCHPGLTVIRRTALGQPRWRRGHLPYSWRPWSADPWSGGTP
Description: cleavage_in_vitro; 50 C. The following applies: tags: C-terminal His6 (pET28b, E. coli Rosetta DE3); linear plasmid.

In series [1] (E. coli ccdB selection), sgRNA 22-nt spacer ; ccdB plasmid PAMWT displayed an activity of less than 0.01 % survival.

Regarding “sgRNA 26-nt spacer ; ccdB plasmid PAMC(4,5)T”, in series [1] ([28,29], NNNTT PAM), the activity was less than 0.001 % survival.

For the molecule sgRNA 26-nt spacer ; ccdB plasmid PAMWT, the activity in series [1] (E. coli ccdB selection) worked out at 13.6 % survival.

B1: sgRNA 24-nt spacer (template bottom strand; RNA is reverse complement without promoter) ; pUC19 WT target, BamHI-linearized (ssRNA ; dsDNA)
RNA: GGUAGGAUGGCAAGAUCCUGGUAUGCUGGGGAGCCUGAAAAGGCUACCUAGCAAGACCCCUUCGUGGGGUCGCAUUCUUCACCCCCUCGCAGCAGCGAGGGGGUUC
DNA 1: GGTAGGATGGCAAGATCCTGGTATACACC
DNA 2: GGTGTATACCAGGATCTTGCCATCCTACC
As to B1, the activity with AceCas9 (Type II-C Cas9) was determined as 0.53 min⁻¹.
